The values that follow come from patent US20230203482A1, “Methods of Rescuing Stop Codons via Genetic Reassignment with ACE-tRNA” (THE WISTAR INSTITUTE OF ANATOMY AND BIOLOGY, priority 2017, published 2023).

The subject of one data set is NLuc-UGA PTC. The experiment in a line: NanoLuc nonsense reporter screen (all-in-one HTC plasmid), TGA/UGA PTC, HEK293 cells. The class given is cell-based, human. The source says:
Several different nonsense mutations cause CF, thus underlying roughly 10% of all CF disease. FIG. 7. These cases are concentrated into […] specific genetic lesions: E60X, R75X, G542X, R553X, Q890X, Y1092X, R1158X, R1162X and W1282X. A screen was developed to screen existing human tRNA sequences for modification and tolerance to anti-codon editing. To this end, roughly 144 ACE-tRNAs were candidates to test for those that could be used to promote the repair of the disease causative nonsense codon and the expression of the full-length protein. Specifically, using the scheme described in FIG. 11, tRNA libraries were generated to identify novel tRNA sequences that encode for ACE tRNA with the ability to repair the top CF causative nonsense mutations. Specifically, 10 ng of annealed oligos encoding the ACE-tRNAs were combined with 50 ng of NanoLuc reporter plasmid, 1 μl 10×CutSmart Buffer (NEB), 1 μl T4 ligase (NEB), 10 mM ATP and 1 μl BbsI (NEB) and cycled in a thermocycler as described in FIG. 11. 1 μl of the reaction was transformed into competent E. coli and the transformants were plated on ampicillin agar plates. One transformant was picked per plate was picked, grown in 1 ml of LB under ampicillin selection, miniprepped and sequence verified.
Screening studies were first performed to identify the best ACE-tRNA Candidates from tryptophan and glycine. 125 ng of sequence verified miniprep cDNA of NanoLuc reporter plasmid with ACE-tRNA was transfected into HEK cells using calcium phosphate. HEK cells were plated in 96 well plates at 4×10^4 the day prior. 24 hours after transfection the media was replaced with 20 μl of PBS and 15 μl of NanoGlo reagent (Promega) was added. Plates were read on a SpectraMax i3 (Molecular Devices). Data are of replicates of 3 or greater. FIG. 8.
FIG. 10. An additional modification of the tRNA was made to further enable their function for the purpose of suppression of nonsense codons and the promotion of protein expression. […] To this end, single and double mutations were directly engineered into the t-stem loop of tRNA Trpchr17.trna39—an ACE-tRNA identified with activity for the rescue of tryptophan TGA nonsense codons. Thirty-eight tRNA t-stem variants were thus generated and screened in HEK cells transiently transfected with the nonsense rescue reporter construct shown in FIG. 4. […] This is a generalizable modification, that is, new tRNA sequences identified, by example 1 and 2, can be made better (for their ability to rescue nonsense codons) through further rationale modifications. Such approaches aid in the therapeutic utility of ACE-tRNA directed to tissue types with low abundance target RNA or where tRNA delivery may be limiting.
In order to enable the identification of the nucleotide composition and functional ability to suppress nonsense codons by new types of tRNA, an All-In-One Plasmid With A One Pot Cloning Reaction was invented for High Throughput Cloning FIG. 11. This approach enables the facile investigation of ACE-tRNA activity via luciferase activity in a standard 96 well format. Briefly, synthetic nucleotide sequences encoding for tRNA are ligated into the NanoLuc Reporter plasmid, with an example of the TGA nonsense reporter plasmid variant shown in FIG. 11. […] and TAG (amber) stop codon rescue vectors have been successfully designed and implemented in FIGS. 16-19. The benefits are the approach is that DNA oligos encoding for tRNA libraries can be ligated in the NanoLuc reporter plasmid with the presence of the restriction enzyme and ligase with the reaction pushed to nearly 100% incorporation of tRNA insert (FIG. 11)-thus the ‘one-pot’ designation. The reaction is transformed into E. coli, with the resultant cDNA purified by standard methods. […]

The test system of a further data set is NLuc-UAG PTC. The experiment in a line: NanoLuc nonsense reporter screen (all-in-one HTC plasmid), TAG/UAG PTC, HEK293 cells. The format is cell-based, human. From the text:
In order to enable the identification of the nucleotide composition and functional ability to suppress nonsense codons by new types of tRNA, an All-In-One Plasmid With A One Pot Cloning Reaction was invented for High Throughput Cloning FIG. 11. This approach enables the facile investigation of ACE-tRNA activity via luciferase activity in a standard 96 well format. Briefly, synthetic nucleotide sequences encoding for tRNA are ligated into the NanoLuc Reporter plasmid, with an example of the TGA nonsense reporter plasmid variant shown in FIG. 11. […] and TAG (amber) stop codon rescue vectors have been successfully designed and implemented in FIGS. 16-19. The benefits are the approach is that DNA oligos encoding for tRNA libraries can be ligated in the NanoLuc reporter plasmid with the presence of the restriction enzyme and ligase with the reaction pushed to nearly 100% incorporation of tRNA insert (FIG. 11)-thus the ‘one-pot’ designation. The reaction is transformed into E. coli, with the resultant cDNA purified by standard methods. Another benefit of the invented method is that the tRNA and reporter gen are within the single expression cassette, therefore lowering biological variability and improving data quality obtaining in resulting screens of tRNA suppression activity. The purified cDNA plasmids are then screened in high-throughput 96 well format for their ability to repair nonsense codons by inferred luciferase activity. The approach is suitable for the high-throughput screening of hundreds to thousands of tRNA for novel therapeutic activity.
The rationale of this study is rooted in the observation that there are multiple tRNA genes with unique sequences (isodecoders) for a given cognate amino acid (isoacceptors), leading to >400 tRNAs annotated in the human genome (http:lowelab.ucsc.edu/GtRNAdb/)^28, 29. First, tRNA genes were examined to identify individual ACE-tRNAs that retain suppression efficacy of PTCs in mammalian cells. In order to maximize sequence coverage, an all-in-one cDNA plasmid was generated that supports both high-throughput cloning (HTC) of ACE-tRNAs and quantitative measurement of PTC suppression using luminescence following delivery to mammalian cells, FIG. 21B. ACE-tRNA sequences were cloned as DNA oligos into the HTC plasmid using Golden Gate cloning^30 paired with ccdB negative selection^31. This strategy produced ˜100% cloning efficiency. ACE-tRNA suppression efficiency was read out from a split NanoLuc luciferase (NLuc) NanoBiT platform whereby the PTC of interest (UGA, UAA, or UAG) was introduced in-frame at the junction between the large bit and small bit domains, FIG. 21B^32, using a 96-well format and normalized to background obtained in NLuc-PTC expressing cells. Twenty-one glycine ACE-tRNAs were first evaluated for suppression of the UGA PTC, FIG. 22, top left, column 1 (violet). […] Given the high sequence conservation among the Gly-tRNAs screened for anti-codon tolerance (FIG. 27), it would be difficult to predict de novo which tRNA would be most amenable to anticodon-editing.
The parent plasmid used was pcDNA3.1(+). The cDNA encoding pNLuc was Gibson Assembled (New England Biolabs, USA) into restriction sites HindIII and XhoI. A glycine (codon gga), tryptophan ([…]), amber (tag), opal (tga) and ochre (taa), were added to amino acid position 160 during cDNA per. The pcDNA3.1(+) polyA sequence was replaced for one with no BbsI restriction sites using per based Gibson Assembly. The high throughput ACE-tRNA Golden Gate cloning site was generated by first inserting the 5′ leader sequence of the human tRNA^Tyr gene (bold) with a T7 promoter sequence upstream (italics)
tRNA gene sequences were obtained from the tRNA database tRNAscan-SE (http://gtrnadb.ucsc.edu/index.html; PMID: 26673694). […]

As to “ArgTGAchr7.trna5: ACE-tRNA Arg, TGA suppressor, SEQ ID NO: 7”, the Ranking entry in the data set on NLuc-UGA PTC (Table 1, Arg TGA) is on record as “#4”.
Same read-out and setting: the value for “ArgTGAchr9.trna6/nointron: ACE-tRNA Arg, TGA suppressor, SEQ ID NO: 4” was “#1”; that for “ArgTGAchr17.trna19: ACE-tRNA Arg, TGA suppressor, SEQ ID NO: 5” was “#2”.
On to “TrpTAGchr6.trna171: ACE-tRNA Trp, TAG suppressor, SEQ ID NO: 34”, for which the Ranking result in the data set with NLuc-UAG PTC (Table 4, Trp TAG) was “#2”.
Still for that read-out and setting: the value for “TrpTAGchr17.trna39: ACE-tRNA Trp, TAG suppressor, SEQ ID NO: 35” was “#3”.
With “TrpTGAchr6.trna171: ACE-tRNA Trp, TGA suppressor, SEQ ID NO: 50”, in the data set with NLuc-UGA PTC (Table 7, Trp TGA), the Ranking result is “#3”.

B1: TS-38: t-stem variant of Trpchr17.trna39, SEQ ID NO: 3 (nucleic acid)
chain: GGCCTCGTGGCGCAACGGTAGCGCGTCTGACTTCAGATCAGAAGGTTCCGGGTTCAAATCCCGGCGGGGTCA
modifications: expressed or natural sequence
Consider B1, for which the “enhancement of the suppression ability of Trpchr17.trna39 by t-stem mutation” value in the data set with NLuc-UGA PTC (HEK cells, luciferase 24 hours post-transfection) was “roughly 250%”.

B2: TrpTGAchr17.trna10: ACE-tRNA Trp, TGA suppressor, SEQ ID NO: 49 (nucleic acid)
chain: GACCTCGTGGCGCAATGGTAGCGCGTCTGACTTCAGATCAGAAGGTTGCGTGTTCAAGTCACGTCGGGGTCA
modifications: expressed or natural sequence
For the molecule B2, the Ranking result in the data set on NLuc-UGA PTC (Table 7, Trp TGA) is recorded as “#2”.

B3: ArgTGAchr17.trna3/withinron: ACE-tRNA Arg, TGA suppressor, SEQ ID NO: 12 (nucleic acid)
chain: CGTCGGCTCTGTGGCGCAATGGATAGCGCATTGGACTTCAAGTGACGAATAGAGCAATTCAAAGGTTGTGGGTTCGAATCCCACCAGAGTCG
modifications: expressed or natural sequence
With B3, the Ranking entry in the data set on NLuc-UGA PTC (Table 1, Arg TGA) is reported as “#7”.

B4: ArgTGAchr9.trna6/withintron: ACE-tRNA Arg, TGA suppressor, SEQ ID NO: 9 (nucleic acid)
chain: CGTCGGCTCTGTGGCGCAATGGATAGCGCATTGGACTTCAAGCTGAGCCTAGTGTGGTCATTCAAAGGTTGTGGGTTCGAGTCCCACCAGAGTCG
modifications: expressed or natural sequence
As for B4, the Ranking result in the data set on NLuc-UGA PTC (Table 1, Arg TGA) is recorded as “#5”.

B5: ArgTGAchr16.trna3: ACE-tRNA Arg, TGA suppressor, SEQ ID NO: 10 (nucleic acid)
chain: CGTCGCCCCGGTGGCCTAATGGATAAGGCATTGGCCTTCAAAGCCAGGGATTGTGGGTTCGAGTCCCACCCGGGGTA
modifications: expressed or natural sequence
Regarding B5, the Ranking result with NLuc-UGA PTC (Table 1, Arg TGA) is “#5”.

B6: GlnTAGchr6.trna63: ACE-tRNA Gln, TAG suppressor, SEQ ID NO: 18 (nucleic acid)
chain: CGTCGGTCCCATGGTGTAATGGTTAGCACTCTGGACTCTAAATCCAGCAATCCGAGTTCGAATCTCGGTGGGACCT
modifications: expressed or natural sequence
In the case of B6, the Ranking result in the data set with NLuc-UAG PTC (Table 2, Gln TAG) was “#3”.

B7: GlnTAGchr6.trna175: ACE-tRNA Gln, TAG suppressor, SEQ ID NO: 17 (nucleic acid)
chain: CGTCGGCCCCATGGTGTAATGGTTAGCACTCTGGACTCTAAATCCAGCGATCCGAGTTCAAATCTCGGTGGGACCT
modifications: expressed or natural sequence
On to B7, for which, in the data set on NLuc-UAG PTC (Table 2, Gln TAG), the Ranking entry is given as “#2”.

B8: GlnTAGchr1.trna17: ACE-tRNA Gln, TAG suppressor, SEQ ID NO: 16 (nucleic acid)
chain: CGTCGGTTCCATGGTGTAATGGTGAGCACTCTGGACTCTAAATCCAGCGATCCGAGTTCGAGTCTCGGTGGAACCT
modifications: expressed or natural sequence
Turning to B8, the Ranking entry with NLuc-UAG PTC (Table 2, Gln TAG) was “#1”.

B9: GlnTAGchr17.trna14: ACE-tRNA Gln, TAG suppressor, SEQ ID NO: 19 (nucleic acid)
chain: CGTCGGTCCCATGGTGTAATGGTTAGCACTCTGGACTCTAAATCCAGCGATCCGAGTTCAAATCTCGGTGGGACCT
modifications: expressed or natural sequence
As for B9, the Ranking result in the data set on NLuc-UAG PTC (Table 2, Gln TAG) is “#4”.

B10: GlnTAGchr6.trna132: ACE-tRNA Gln, TAG suppressor, SEQ ID NO: 20 (nucleic acid)
chain: CGTCGGCCCCATGGTGTAATGGTCAGCACTCTGGACTCTAAATCCAGCGATCCGAGTTCAAATCTCGGTGGGACCC
modifications: expressed or natural sequence
As for B10, the Ranking result in the data set with NLuc-UAG PTC (Table 2, Gln TAG) is on record as “#5”.

B11: GlyTGAchr17.trna9: ACE-tRNA Gly, TGA suppressor, SEQ ID NO: 55 (nucleic acid)
chain: GCGTTGGTGGTATAGTGGTAAGCATAGCTGCCTTCAAAGCAGTTGACCCGGGTTCGATTCCCGGCCAACGCA
modifications: expressed or natural sequence
For the molecule B11, in the data set on NLuc-UGA PTC (Table 8, Gly TGA), the Ranking result is listed as “#3”.

B12: GlyTGAchr1.trna107: ACE-tRNA Gly, TGA suppressor, SEQ ID NO: 54 (nucleic acid)
chain: GCGTTGGTGGTATAGTGGTGAGCATAGCTGCCTTCAAAGCAGTTGACCCGGGTTCGATTCCCGGCCAACGCA
modifications: expressed or natural sequence
Regarding B12, the Ranking result in the data set on NLuc-UGA PTC (Table 8, Gly TGA) is listed as “#2”.

B13: ArgTGAchr1.trna10/nointron: ACE-tRNA Arg, TGA suppressor, SEQ ID NO: 6 (nucleic acid)
chain: CGTCGGCTCCGTGGCGCAATGGATAGCGCATTGGACTTCAAATTCAAAGGTTCCGGGTTCGAGTCCCGGCGGAGTCG
modifications: expressed or natural sequence
Take B13: the Ranking entry in the data set on NLuc-UGA PTC (Table 1, Arg TGA) is recorded as “#3”.

B14: ArgTGAchr17.trna3/nointron: ACE-tRNA Arg, TGA suppressor, SEQ ID NO: 8 (nucleic acid)
chain: CGTCGGCTCTGTGGCGCAATGGATAGCGCATTGGACTTCAAATTCAAAGGTTGTGGGTTCGAATCCCACCAGAGTCG
modifications: expressed or natural sequence
Take B14: the Ranking result with NLuc-UGA PTC (Table 1, Arg TGA) is recorded as “#4”.

B15: ArgTGAchr1.trna10/withintron: ACE-tRNA Arg, TGA suppressor, SEQ ID NO: 11 (nucleic acid)
chain: CGTCGGCTCCGTGGCGCAATGGATAGCGCATTGGACTTCAAGAGGCTGAAGGCATTCAAAGGTTCCGGGTTCGAGTCCCGGCGGAGTCG
modifications: expressed or natural sequence
Take B15: the Ranking result in the data set with NLuc-UGA PTC (Table 1, Arg TGA) is reported as “#6”.
